Source: patent US20240325557A1, “TREATMENT OF CANCER” (INNATE PHARMA, priority 2020, published 2024)

How the values were obtained:
Assay in all cases: Binding to cell surface expressed Nectin-4 point mutant
Details in all cases: HEK-293T
[1] = biological target: T1, Nectin-4 Mutant 2 (V90S/P92A/A93S/E95A/G96D) (Homo sapiens, UniProt Q96NY8, A93S/E95A/G96D/P92A/V90S)
T1 construct: expressed in transfected cells; host or cells: HEK293T
T1 sequence (Q96NY8 32-510 V90S/P92A/A93S/E95A/G96D): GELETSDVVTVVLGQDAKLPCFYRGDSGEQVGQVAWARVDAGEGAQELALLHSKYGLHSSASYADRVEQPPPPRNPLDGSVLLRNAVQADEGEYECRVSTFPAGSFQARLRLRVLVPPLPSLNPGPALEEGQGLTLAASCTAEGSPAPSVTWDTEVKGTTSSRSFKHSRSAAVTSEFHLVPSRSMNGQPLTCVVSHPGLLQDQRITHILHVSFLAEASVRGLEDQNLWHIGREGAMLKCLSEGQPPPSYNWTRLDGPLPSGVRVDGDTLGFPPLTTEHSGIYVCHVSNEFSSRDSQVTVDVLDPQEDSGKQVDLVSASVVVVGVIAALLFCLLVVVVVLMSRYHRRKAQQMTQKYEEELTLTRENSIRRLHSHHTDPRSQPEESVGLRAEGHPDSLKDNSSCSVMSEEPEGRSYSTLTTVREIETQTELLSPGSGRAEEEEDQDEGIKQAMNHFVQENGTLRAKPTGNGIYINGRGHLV
Excerpt: (§1) Combined with the published structures of the Nectin-4 domains, Nectin-4 mutations at surface exposed amino acids residues were designed. Nectin-4 domain structure was modelled based on Protein Data Bank reference: 4FRW (domains V et C1). Human Nectin-4 used was NCBI Reference Sequence: NP_112178.2, mouse Nectin-4 used was NCBI Reference Sequence: AAL79833.1, cynomolgus Nectin-4 used was NCBI Reference Sequence: XP_005541277.1, rat Nectin-4 used was NCBI Reference Sequence: NP_001102546.1. The cells expressing the Nectin-4 mutants are then be used for testing anti-Nectin-4 antibodies for loss of binding to different Nectin-4 mutants to identify antibodies that bind to the same site on Nectin-4. […] FIGS. 12A and 12B show a molecular model of the human Nectin-4 protein, indicating the position of substituted residues in mutants 7 (12A) and in mutants 7bis (12B); these mutants are in the C1 domain identify two sites at the junction of domain C1 and V domain that are on opposing faces of the Nectin-4 protein.
(§2) Nectin-4 mutants were generated by PCR. The sequences amplified were run on agarose gel and purified using the Macherey Nagel PCR Clean-Up Gel Extraction kit. The purified PCR products generated for each mutant were then ligated into an expression vector, with the ClonTech InFusion system. The vectors containing the mutated sequences were prepared as Miniprep and sequenced. After sequencing, the vectors containing the mutated sequences were prepared as Midiprep using the Promega PureYield™ Plasmid Midiprep System. HEK293T cells were grown in DMEM medium (Invitrogen), transfected with vectors using Invitrogen's Lipofectamine 2000 and incubated at 37° C. in a CO2 incubator for 48 hours prior to testing for transgene expression. The targeted amino acid mutations are shown in Table 2 below, listing the residue present in wild-type Nectin-4/position of residue/residue present in mutant Nectin-4, with position reference being to the Nectin-4 protein with leader peptide shown in SEQ ID NO: 1.

[2] = biological target: T2, Nectin-4 Mutant 4 (A72P/G73N/G75S) (Homo sapiens, UniProt Q96NY8, A72P/G73N/G75S)
T2 construct: expressed in transfected cells; host or cells: HEK293T
T2 sequence (Q96NY8 32-510 A72P/G73N/G75S): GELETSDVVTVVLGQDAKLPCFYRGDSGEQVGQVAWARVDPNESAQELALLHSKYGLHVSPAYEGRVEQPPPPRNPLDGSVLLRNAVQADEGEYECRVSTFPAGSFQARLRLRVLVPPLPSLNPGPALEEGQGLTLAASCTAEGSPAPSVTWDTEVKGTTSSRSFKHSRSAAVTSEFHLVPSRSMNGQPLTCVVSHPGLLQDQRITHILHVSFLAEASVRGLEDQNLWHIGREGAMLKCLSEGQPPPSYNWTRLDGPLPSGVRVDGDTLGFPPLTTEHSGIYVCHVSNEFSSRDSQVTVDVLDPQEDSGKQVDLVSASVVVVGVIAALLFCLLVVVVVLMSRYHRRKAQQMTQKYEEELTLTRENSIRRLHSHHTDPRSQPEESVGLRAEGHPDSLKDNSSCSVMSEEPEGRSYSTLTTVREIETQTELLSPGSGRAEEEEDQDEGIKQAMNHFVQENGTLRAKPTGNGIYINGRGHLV
Excerpt: as §1, §2

[3] = biological target: T3, Nectin-4 Mutant 7 (S195A/K197T/S199A) (Homo sapiens, UniProt Q96NY8, K197T/S195A/S199A)
T3 construct: expressed in transfected cells; host or cells: HEK293T
T3 sequence (Q96NY8 32-510 S195A/K197T/S199A): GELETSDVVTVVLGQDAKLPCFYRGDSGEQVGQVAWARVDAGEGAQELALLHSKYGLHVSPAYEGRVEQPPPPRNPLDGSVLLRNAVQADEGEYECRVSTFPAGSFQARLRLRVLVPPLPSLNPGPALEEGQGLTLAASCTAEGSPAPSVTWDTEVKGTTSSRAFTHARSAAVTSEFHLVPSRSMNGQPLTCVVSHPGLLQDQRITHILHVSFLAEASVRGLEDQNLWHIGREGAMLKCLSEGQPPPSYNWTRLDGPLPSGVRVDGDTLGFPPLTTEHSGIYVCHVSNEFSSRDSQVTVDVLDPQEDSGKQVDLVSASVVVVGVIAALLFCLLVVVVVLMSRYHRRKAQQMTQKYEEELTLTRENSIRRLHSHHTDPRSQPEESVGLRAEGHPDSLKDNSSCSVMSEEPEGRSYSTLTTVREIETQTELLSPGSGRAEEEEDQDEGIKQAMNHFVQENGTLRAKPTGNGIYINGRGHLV
Excerpt: as §1, §2

[4] = biological target: T4, Nectin-4 Mutant 8 (T190A/T191Q/S193A) (Homo sapiens, UniProt Q96NY8, S193A/T190A/T191Q)
T4 construct: expressed in transfected cells; host or cells: HEK293T
T4 sequence (Q96NY8 32-510 T190A/T191Q/S193A): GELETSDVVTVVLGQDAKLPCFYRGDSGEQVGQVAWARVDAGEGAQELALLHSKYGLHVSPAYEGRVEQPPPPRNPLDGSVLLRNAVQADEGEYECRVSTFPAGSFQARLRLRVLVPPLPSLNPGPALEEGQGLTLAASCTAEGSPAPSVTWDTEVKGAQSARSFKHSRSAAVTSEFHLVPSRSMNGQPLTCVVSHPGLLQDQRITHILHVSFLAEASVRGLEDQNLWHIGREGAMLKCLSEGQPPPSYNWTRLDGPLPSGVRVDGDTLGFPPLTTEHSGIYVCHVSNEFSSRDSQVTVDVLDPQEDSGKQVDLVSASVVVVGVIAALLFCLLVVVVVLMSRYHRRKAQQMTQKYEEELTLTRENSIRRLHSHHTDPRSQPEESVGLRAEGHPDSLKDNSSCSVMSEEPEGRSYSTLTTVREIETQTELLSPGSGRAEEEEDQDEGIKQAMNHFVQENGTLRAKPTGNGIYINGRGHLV
Excerpt: as §1, §2

B1: 5E7 (antibody, V domains shown)
VH: QVQLQQPGAELVKPGASVKLSCKASGYIFTSYWMHWVKQRPGQGLEWIGEIDPSDSYTNYNQKFKGKATLTLDKSSSTTYMQLSSLTSEDSAVYYCVRGYGNYGDYWGQGTTLTVSS
VL: DVVMTQAAFSNPVTLGTSASISCRSSKSLLHSNGITYLYWYLQKPGQSPQLLIYQMSNLASGVPDRFSSSGSGTDFTLRISRVEAEDVGVYYCAQNLELPWTFGGGTKLEIK
[1]
  association with Nectin-4 Mutant 2: +
[2]
  association with Nectin-4 Mutant 4: +
[3]
  association with Nectin-4 Mutant 7: −
[4]
  association with Nectin-4 Mutant 8: +

B2: 10B12: anti-Nectin-4 antibody, VH SEQ ID NO: 24, VL SEQ ID NO: 25, binds junction of domain C1 and V (antibody, listed as Mus musculus, V domains shown)
VH: QVQLQQPGAELVKPGASVKLSCKASGYTFTSYWMHWVKQRPGQGLEWIGEIDPSDSYTNYNQKFKGKATLTVDKSSSTAYMQLSSLTSEDSAVYYCVRGYGNYGDYWGQGTTLTVSS
VL: DIVMTQAAFSNPVTLGTSASISCRSSKSLLHSNGITYLYWYLQKPGQSPQLLIYQMSNLASGVPDRFSSSGSGTDFTLRISRVEAEDVGVYYCAQNLELPWTFGGGTKLEIK
[1]
  association with Nectin-4 Mutant 2: +
[2]
  association with Nectin-4 Mutant 4: +
[3]
  association with Nectin-4 Mutant 7: −
[4]
  association with Nectin-4 Mutant 8: +

B3: N41 (antibody, V domains shown)
VH: QVQLKQSGPGLVQPSQSLSITCTVSGFSLTNYGVHWVRQSPGKGLEWLGVIWSGGSTDYNAAFISRLSISKDTSKSQVFFKMNSLQADDTAIYYCARELIHAMDNWGQGTSVTVSS
VL: DIQMTQSPASLSVSVGETVTITCRASENIYSNLAWYQQKQGNSPQLLVFAATNLADGVPSRFSGSGSGTQYSLKINSLQSEDFGTYYCQHFWGTPTFGGGTKLEIK
[1]
  association with Nectin-4 Mutant 2: +
[2]
  association with Nectin-4 Mutant 4: +
[3]
  association with Nectin-4 Mutant 7: +
[4]
  association with Nectin-4 Mutant 8: +
